According to the supplement of paper PMC9112550, “Optimization of the antimicrobial peptide Bac7 by deep mutational scanning” (BMC Biology, 2022):

system: Escherichia coli TOP10; assay: shrunken log2 fold change of peptide-encoding DNA abundance (4.5 h post-induction vs induction); higher = less antimicrobial activity (less host growth inhibition); conditions: time post-induction: 4.5 h; library: site-saturation at positions 5, 18, 19, 20
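Further: peptides expressed intracellularly from a pBAD plasmid library in pooled LB shake-flask culture, induced with 0.3% L-arabinose, DNA abundance read by NGS, three biological replicates, DESeq2 with apeglm shrinkage.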

Sequence | shrunken log2 fold change
RRIRGRPPRLPRPRPRPTPSPRP | 0.954
RRIRGRPPRLPRPRPRPTQKPRP | 1.22
RRIRGRPPRLPRPRPRPTSDPRP | 0.931
RRIRGRPPRLPRPRPRPTSHPRP | 0.64
RRIRGRPPRLPRPRPRPTTHPRP | 0.875
RRIRGRPPRLPRPRPRPTVMPRP | 0.074
RRIRGRPPRLPRPRPRPTWGPRP | 0.469
RRIRGRPPRLPRPRPRPTWLPRP | 2.72
RRIRGRPPRLPRPRPRPTYMPRP | 0.0228
RRIRGRPPRLPRPRPRPVALPRP | 0.639
RRIRGRPPRLPRPRPRPVCEPRP | 1.06
RRIRGRPPRLPRPRPRPVDFPRP | 0.408
RRIRGRPPRLPRPRPRPVDQPRP | 0.126
RRIRGRPPRLPRPRPRPVDTPRP | 0.678
RRIRGRPPRLPRPRPRPVFMPRP | 0.0348
RRIRGRPPRLPRPRPRPVFNPRP | 0.155
RRIRGRPPRLPRPRPRPVFPPRP | 0.36
RRIRGRPPRLPRPRPRPVHFPRP | 0.562
RRIRGRPPRLPRPRPRPVHMPRP | -0.0938
RRIRGRPPRLPRPRPRPVHVPRP | 0.0798
RRIRGRPPRLPRPRPRPVILPRP | -0.33
RRIRGRPPRLPRPRPRPVKFPRP | 0.326
RRIRGRPPRLPRPRPRPVKGPRP | 0.276
RRIRGRPPRLPRPRPRPVLNPRP | 0.469
RRIRGRPPRLPRPRPRPVLTPRP | 0.834

Sequence | shrunken log2 fold change
RRIRGRPPRLPRPRPRPVMGPRP | 0.289
RRIRGRPPRLPRPRPRPVMKPRP | 0.729
RRIRGRPPRLPRPRPRPVNQPRP | 0.35
RRIRGRPPRLPRPRPRPVNRPRP | -0.0382
RRIRGRPPRLPRPRPRPVPGPRP | 0.742
RRIRGRPPRLPRPRPRPVPMPRP | 1.17
RRIRGRPPRLPRPRPRPVQAPRP | 0.891
RRIRGRPPRLPRPRPRPVQGPRP | 0.301
RRIRGRPPRLPRPRPRPVQPPRP | 0.95
RRIRGRPPRLPRPRPRPVRGPRP | 0.866
RRIRGRPPRLPRPRPRPVTAPRP | 0.74
RRIRGRPPRLPRPRPRPVTRPRP | 0.383
RRIRGRPPRLPRPRPRPVTYPRP | -0.13
RRIRGRPPRLPRPRPRPVVGPRP | 0.735
RRIRGRPPRLPRPRPRPVVHPRP | 0.254
RRIRGRPPRLPRPRPRPVWGPRP | 1.08
RRIRGRPPRLPRPRPRPVWWPRP | 0.997
RRIRGRPPRLPRPRPRPVYAPRP | 0.0566
RRIRGRPPRLPRPRPRPVYGPRP | 0.0598
RRIRGRPPRLPRPRPRPVYTPRP | 0.00198
RRIRGRPPRLPRPRPRPWAEPRP | 2.19
RRIRGRPPRLPRPRPRPWAIPRP | 0.259
RRIRGRPPRLPRPRPRPWAVPRP | -0.142
RRIRGRPPRLPRPRPRPWCSPRP | -0.0965
RRIRGRPPRLPRPRPRPWDHPRP | 0.0661

Sequence | shrunken log2 fold change
RRIRGRPPRLPRPRPRPWEAPRP | -0.0319
RRIRGRPPRLPRPRPRPWGVPRP | 0.287
RRIRGRPPRLPRPRPRPWKTPRP | -0.0497
RRIRGRPPRLPRPRPRPWLSPRP | -0.0504
RRIRGRPPRLPRPRPRPWLYPRP | 0.285
RRIRGRPPRLPRPRPRPWMNPRP | 0.106
RRIRGRPPRLPRPRPRPWQAPRP | 0.00236
RRIRGRPPRLPRPRPRPWREPRP | 0.599
RRIRGRPPRLPRPRPRPWRSPRP | 0.172
RRIRGRPPRLPRPRPRPWSDPRP | 0.0554
RRIRGRPPRLPRPRPRPWSMPRP | 0.0583
RRIRGRPPRLPRPRPRPWSTPRP | 0.243
RRIRGRPPRLPRPRPRPWSVPRP | -0.131
RRIRGRPPRLPRPRPRPWTCPRP | -0.0593
RRIRGRPPRLPRPRPRPWTNPRP | 0.0419
RRIRGRPPRLPRPRPRPWYGPRP | -0.242
RRIRGRPPRLPRPRPRPWYNPRP | -0.358
RRIRGRPPRLPRPRPRPWYPPRP | -0.119
RRIRGRPPRLPRPRPRPWYWPRP | 0.187
RRIRGRPPRLPRPRPRPYAPPRP | 0.116
RRIRGRPPRLPRPRPRPYAYPRP | -0.0803
RRIRGRPPRLPRPRPRPYEDPRP | -0.017
RRIRGRPPRLPRPRPRPYENPRP | -0.0711
RRIRGRPPRLPRPRPRPYFTPRP | -0.123
RRIRGRPPRLPRPRPRPYGEPRP | 0.398

Sequence | shrunken log2 fold change
RRIRGRPPRLPRPRPRPYGKPRP | -0.124
RRIRGRPPRLPRPRPRPYGRPRP | 0.047
RRIRGRPPRLPRPRPRPYHQPRP | -0.101
RRIRGRPPRLPRPRPRPYHSPRP | -0.861
RRIRGRPPRLPRPRPRPYIMPRP | -0.746
RRIRGRPPRLPRPRPRPYKCPRP | -0.00955
RRIRGRPPRLPRPRPRPYLFPRP | -0.0066
RRIRGRPPRLPRPRPRPYMRPRP | 0.0456
RRIRGRPPRLPRPRPRPYMYPRP | -0.251
RRIRGRPPRLPRPRPRPYNHPRP | -0.983
RRIRGRPPRLPRPRPRPYSIPRP | 0.273
RRIRGRPPRLPRPRPRPYSTPRP | 0.037
RRIRGRPPRLPRPRPRPYSYPRP | -0.0264
RRIRGRPPRLPRPRPRPYTDPRP | -0.417
RRIRGRPPRLPRPRPRPYTIPRP | 0.187
RRIRGRPPRLPRPRPRPYVRPRP | -0.51
RRIRGRPPRLPRPRPRPYWIPRP | -0.311
RRIRGRPPRLPRPRPRPYWRPRP | -0.104
RRIRGRPPRLPRPRPRPYYMPRP | -0.238
RRIRGRPPRLPRPRPRPYYPPRP | -0.791
RRIRHRPPRLPRPRPRPAAGPRP | 0.323
RRIRHRPPRLPRPRPRPAAHPRP | 0.274
RRIRHRPPRLPRPRPRPAAMPRP | 0.191
RRIRHRPPRLPRPRPRPACYPRP | -0.226
RRIRHRPPRLPRPRPRPAEVPRP | -0.0107

Sequence | shrunken log2 fold change
RRIRHRPPRLPRPRPRPAGDPRP | 0.309
RRIRHRPPRLPRPRPRPAGKPRP | 0.0288
RRIRHRPPRLPRPRPRPAKAPRP | 0.0344
RRIRHRPPRLPRPRPRPALIPRP | 0.0852
RRIRHRPPRLPRPRPRPALNPRP | 0.0444
RRIRHRPPRLPRPRPRPAMPPRP | -0.0758
RRIRHRPPRLPRPRPRPANCPRP | -0.246
RRIRHRPPRLPRPRPRPANYPRP | -0.00316
RRIRHRPPRLPRPRPRPAPLPRP | 0.16
RRIRHRPPRLPRPRPRPARGPRP | 0.319
RRIRHRPPRLPRPRPRPARPPRP | 0.502
RRIRHRPPRLPRPRPRPARSPRP | 0.0188
RRIRHRPPRLPRPRPRPAVCPRP | 0.0561
RRIRHRPPRLPRPRPRPAVFPRP | -0.0167
RRIRHRPPRLPRPRPRPAWGPRP | 0.542
RRIRHRPPRLPRPRPRPAWLPRP | 0.163
RRIRHRPPRLPRPRPRPAWMPRP | 0.574
RRIRHRPPRLPRPRPRPAYDPRP | -0.265
RRIRHRPPRLPRPRPRPCAEPRP | -0.228
RRIRHRPPRLPRPRPRPCAHPRP | 0.0671
RRIRHRPPRLPRPRPRPCERPRP | -0.0535
RRIRHRPPRLPRPRPRPCGVPRP | -0.00991
RRIRHRPPRLPRPRPRPCHIPRP | -0.454
RRIRHRPPRLPRPRPRPCIAPRP | -0.46
RRIRHRPPRLPRPRPRPCIIPRP | -0.0445

Sequence | shrunken log2 fold change
RRIRHRPPRLPRPRPRPCLTPRP | -0.0273
RRIRHRPPRLPRPRPRPCMPPRP | 0.0401
RRIRHRPPRLPRPRPRPCMYPRP | -0.0819
RRIRHRPPRLPRPRPRPCPGPRP | -0.541
RRIRHRPPRLPRPRPRPCPSPRP | 0.0144
RRIRHRPPRLPRPRPRPCPVPRP | -0.0628
RRIRHRPPRLPRPRPRPCRMPRP | 0.0591
RRIRHRPPRLPRPRPRPCSDPRP | -0.101
RRIRHRPPRLPRPRPRPCTHPRP | -0.192
RRIRHRPPRLPRPRPRPCTWPRP | -0.0924
RRIRHRPPRLPRPRPRPCVEPRP | 0.197
RRIRHRPPRLPRPRPRPCVNPRP | -0.166
RRIRHRPPRLPRPRPRPCVTPRP | -0.609
RRIRHRPPRLPRPRPRPCYDPRP | -0.00778
RRIRHRPPRLPRPRPRPDAGPRP | -0.0143
RRIRHRPPRLPRPRPRPDAKPRP | -0.0555
RRIRHRPPRLPRPRPRPDCMPRP | -0.291
RRIRHRPPRLPRPRPRPDEIPRP | -0.137
RRIRHRPPRLPRPRPRPDFEPRP | 0.18
RRIRHRPPRLPRPRPRPDFYPRP | -0.609
RRIRHRPPRLPRPRPRPDHIPRP | -0.336
RRIRHRPPRLPRPRPRPDILPRP | -0.0904
RRIRHRPPRLPRPRPRPDINPRP | -0.0579
RRIRHRPPRLPRPRPRPDKGPRP | 0.0349
RRIRHRPPRLPRPRPRPDKHPRP | -0.25
